For assay [1], the target named is Streptavidin (11897000, Roche) (UniProt P22629 37-163, limits assumed). The assay is described as follows: SPR, TT10F7 captured via anti-SlyD antibody, streptavidin in solution. The method, then: (§1) The samples were diluted in the instrument's buffer. In another embodiment the buffer was HBS-E buffer (10 mM HEPES pH 7.4, 150 mM NaCl, 3 mM EDTA) and the samples were diluted in the detergent-free buffer. The system operated at 25° C. 10000 RU GAR-Fcγ (relative units of Fcγ-fragment binding, polyclonal goat anti-Rabbit IgG/Jackson Laboratories) were immobilized according to the manufacturer's instructions using EDC/NHS chemistry on all 4 flow cells. The sensor is finally deactivated using 1M ethanolamine. […] A monoclonal rabbit anti-Thermus thermophilus SlyD core protein (0612pS3A8) binding antibody, was captured in all flow cells by a 6 min injection at 5 μl/min. […] Flow cell 1 served as a reference. […] The Thermus thermophilus SlyD-FKBP clones were specifically captured on the sensor by a 2 min injection at 30 μl/min directly from a 1:25 diluted 10000 g-centrifuged E. coli lysate supernatant.
(§2) The flow rate was set to 100 μl/min. […] The dissociation was monitored for 5 minutes.
(In general: In SPR one partner is held on a chip, and binding of the other changes the refractive index at the surface.)

In assay [2] the target is T1, human recombinant TNFα (fully intact trimeric TNFα) (human, UniProt P01375 77-233).
T1 construct: also called hrTNFα
The assay is described as follows: SPR, TT10F7 captured, TNFα (52 kDa trimer) in solution, + TWEEN 20. The method, then: as §1, §2

The target of assay [3] is T1, human recombinant TNFα (fully intact …). The experiment in a line: SPR, TT10F7 captured, TNFα (52 kDa trimer) in solution, - TWEEN 20. As to the method: as §1, §2
Assay [4] shares this target. The experiment in a line: SPR BIACORE 3000, TT10F7 captured via anti-SlyD antibody, trimeric TNFα as analyte. As to the method: as §1, with “A CM5 series sensor was mounted into the system and was normalized in HBS-ET buffer (10 mM HEPES pH 7.4, 150 mM NaCl, 3 mM EDTA, 0.005% w/v Tween 20) according to the manufacturer's instructions. The samples” for “The samples”
as §2

Assay [5] shares this target. The assay is described as follows: SPR, C10B9 captured via anti-SlyD antibody, TNFα in solution. The method, then:
as §1, §2

One may read the Kd as the free concentration of one partner at which half of the binding sites on the other are occupied at equilibrium, for simple one-to-one binding. As usually defined, the koff is the first-order rate constant of dissociation. As a reminder, the kon is a measure of how fast the partners come together.

T1 sequence (P01375 77-233 limits assumed): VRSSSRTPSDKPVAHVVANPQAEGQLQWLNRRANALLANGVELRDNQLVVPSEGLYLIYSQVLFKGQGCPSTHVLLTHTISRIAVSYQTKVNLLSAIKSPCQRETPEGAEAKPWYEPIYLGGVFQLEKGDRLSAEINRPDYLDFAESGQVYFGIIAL
Chain of Streptavidin (11897000, Roche) (P22629 37-163 limits assumed): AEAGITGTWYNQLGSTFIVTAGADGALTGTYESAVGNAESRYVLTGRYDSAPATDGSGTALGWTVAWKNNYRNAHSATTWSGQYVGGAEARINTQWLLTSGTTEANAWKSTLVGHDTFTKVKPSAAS

B1: Thermus thermophilus SlyD-FKBP TT10F7 (designed binder)
chain: MRSKVGQDKVVTIRYTLQVEGEVLDQGELSYLHGHRNLIPGLEEALEGREEGEAFQAHVPAEKAYGAGSWKPHFNLHLLYLIGSSGKDLDFQVEVVKVREATPEELLHGHAHGGAAAGLNDIFEAQKIEWHEGSRKHHHHHHHH
notes: captured on the sensor directly from E. coli lysate; also called TT10F7 mutant; TT10F7 T.t.SlyD-FKBP12
In the case of B1, the binding result in assay [1] is reported as “no binding (tested: 1 µM)”. Besides, in assay [2], the Kd is 258 nM, the koff worked out at 0.00268 s⁻¹ and the kon is 10400 M⁻¹ s⁻¹. Also, in assay [3], the Kd is 262 nM, the koff was 0.00103 s⁻¹ and the kon was 3960 M⁻¹ s⁻¹. In assay [4], the stoichiometry was in the range of 3 to 1.

B2: Thermus thermophilus SlyD-FKBP clone C10B9 (designed binder)
chain: MRSKVGQDKVVTIRYTLQVEGEVLDQGELSYLHGHRNLIPGLEEALEGREEGEAFQAHVPAEKAYGAGSYYVLITDNLVYFGGSSGKDLDFQVEVVKVREATPEELLHGHGGAAAGLNDIFEAQKIEWHEGSRKHHHHHHHH
notes: also called C10B9 mutant
In the case of B2, the binding result in assay [5] is recorded as “no binding (tested: 1 µM)”.

The values above are taken from patent US20260193638A1 (ROCHE DIAGNOSTICS OPERATIONS, published 2026).
